The values below come from patent CN111153992A (BEIJING CHEST HOSPITAL CAPITAL MEDICAL UNIV; BEIJING …, dated 2020).

Residue numbers refer to the chain shown, from its start.

Holding throughout (test): indirect ELISA, recombinant protein coated on plate
The target in one assay is T1, 结核分枝杆菌特异性重组蛋白38KD (Mycobacterium tuberculosis, UniProt P9WGU1 24-374).
T1 sequence (looked up): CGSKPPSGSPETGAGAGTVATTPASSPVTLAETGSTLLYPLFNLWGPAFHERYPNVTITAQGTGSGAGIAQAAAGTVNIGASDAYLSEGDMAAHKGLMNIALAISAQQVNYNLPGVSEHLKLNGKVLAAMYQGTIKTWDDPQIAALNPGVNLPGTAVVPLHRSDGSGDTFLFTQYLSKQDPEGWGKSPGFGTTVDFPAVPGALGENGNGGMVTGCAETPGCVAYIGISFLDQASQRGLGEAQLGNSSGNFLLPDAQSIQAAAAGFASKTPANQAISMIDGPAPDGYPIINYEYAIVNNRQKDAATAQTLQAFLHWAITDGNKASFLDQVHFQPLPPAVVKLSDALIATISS

A further assay has as its target T2, 结核分枝杆菌特异性重组蛋白MPT32 (Mycobacterium tuberculosis, UniProt P9WIR7 40-325).
T2 sequence (looked up): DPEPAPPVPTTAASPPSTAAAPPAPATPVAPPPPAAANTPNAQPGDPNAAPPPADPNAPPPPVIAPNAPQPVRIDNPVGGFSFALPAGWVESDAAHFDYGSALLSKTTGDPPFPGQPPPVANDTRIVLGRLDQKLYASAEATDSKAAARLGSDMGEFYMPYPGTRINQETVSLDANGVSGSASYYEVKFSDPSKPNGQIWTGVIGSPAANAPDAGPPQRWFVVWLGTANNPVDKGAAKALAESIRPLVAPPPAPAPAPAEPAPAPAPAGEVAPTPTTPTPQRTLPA

The target of the next assay is T3, 结核分枝杆菌特异性重组蛋白MPT64 (Mycobacterium tuberculosis, UniProt P9WIN9 24-228).
T3 sequence (looked up): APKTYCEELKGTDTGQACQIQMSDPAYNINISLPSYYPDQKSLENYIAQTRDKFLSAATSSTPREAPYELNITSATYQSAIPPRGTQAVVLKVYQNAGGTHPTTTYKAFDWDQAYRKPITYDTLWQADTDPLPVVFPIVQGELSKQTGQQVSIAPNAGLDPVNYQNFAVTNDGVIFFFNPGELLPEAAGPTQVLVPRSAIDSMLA

The next assay has as its target 结核分枝杆菌特异性重组蛋白Mtb81 (Mycobacterium tuberculosis, UniProt P9WK17 1-741).
In a further assay the target is T4, 结核分枝杆菌特异性重组蛋白CFP10 (Mycobacterium tuberculosis, UniProt P9WNK5 1-100).
T4 sequence (looked up): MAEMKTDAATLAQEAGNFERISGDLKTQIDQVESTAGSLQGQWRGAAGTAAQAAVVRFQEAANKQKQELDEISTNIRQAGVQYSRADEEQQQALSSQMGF

The target in another assay is T5, 结核分枝杆菌特异性重组蛋白EspC (Mycobacterium tuberculosis, UniProt P9WJD7 1-103).
T5 sequence (looked up): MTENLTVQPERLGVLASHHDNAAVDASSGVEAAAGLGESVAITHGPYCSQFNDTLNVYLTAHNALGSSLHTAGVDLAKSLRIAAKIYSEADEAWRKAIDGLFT

结核分枝杆菌特异性重组蛋白Mtb81, sequence (P9WK17 whole entry): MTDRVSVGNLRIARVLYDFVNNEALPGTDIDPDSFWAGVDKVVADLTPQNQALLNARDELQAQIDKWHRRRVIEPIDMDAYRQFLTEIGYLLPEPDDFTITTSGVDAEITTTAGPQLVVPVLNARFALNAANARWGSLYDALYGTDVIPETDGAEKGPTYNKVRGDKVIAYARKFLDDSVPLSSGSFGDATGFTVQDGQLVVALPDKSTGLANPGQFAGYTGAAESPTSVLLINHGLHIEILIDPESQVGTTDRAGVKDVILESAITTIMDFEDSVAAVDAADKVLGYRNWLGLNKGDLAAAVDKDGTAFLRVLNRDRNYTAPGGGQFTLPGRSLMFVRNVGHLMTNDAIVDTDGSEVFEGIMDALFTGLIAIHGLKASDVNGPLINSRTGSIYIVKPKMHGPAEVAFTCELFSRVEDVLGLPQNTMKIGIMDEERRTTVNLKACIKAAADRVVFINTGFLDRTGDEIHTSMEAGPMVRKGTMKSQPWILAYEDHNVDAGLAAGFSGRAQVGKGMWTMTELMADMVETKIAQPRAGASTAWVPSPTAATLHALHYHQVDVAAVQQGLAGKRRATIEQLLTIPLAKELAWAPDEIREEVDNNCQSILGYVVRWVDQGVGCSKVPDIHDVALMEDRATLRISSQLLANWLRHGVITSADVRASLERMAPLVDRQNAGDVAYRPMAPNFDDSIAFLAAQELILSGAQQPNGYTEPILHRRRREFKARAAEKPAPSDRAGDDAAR

B1: BJRbL01 (antibody, V domains shown)
VH: QSVEESGGRLVTPGTSLTLTCTVSGFSLSNYDMGWVRQAPGKGLEWIGNIWSNGYTDYASWVNGRFTISKTSSTTMDLKMTSLTTEDMATYFCARGSSGYVGDIWGPGTLVTVSS
VL: DPVLTQTPASVEVAVGGTVTMNCQASHSVYGNNELSWYQQKPGQPPKLLVYKASTLASGVPSRFKGSGSGTQFTLTISDLECDDAAIYYCQGGYWGNRAFGGGTEVVVKG
notes: also called 兔抗LAM单克隆抗体 BJRbL01; 抗LAM抗体
As for B1, the binding result with 结核分枝杆菌特异性重组蛋白38KD, with 结核分枝杆菌特异性重组蛋白MPT32, in the assay with 结核分枝杆菌特异性重组蛋白MPT64, in the assay with 结核分枝杆菌特异性重组蛋白Mtb81, with 结核分枝杆菌特异性重组蛋白CFP10 and with 结核分枝杆菌特异性重组蛋白EspC was “no binding (tested: protein coated at 5μg/ml)” each time.

B2: BJRbL03 (antibody, V domains shown)
VH: B1 VH with V3L, S29R, N30S, N49S, G54D, Y55F, I68V, T85S, M88T, A94V
VL: DPMLTQTASSVSAAVGGTVTINCQASQSVYGNNELSWYQQKPGQPPKLLIYKASTLASGVPSRFKASGSGTQFTLTISDLECDDAAIYYCQGGYWGNRAFGGGTKLEIKG
notes: also called 兔抗LAM单克隆抗体 BJRbL03; 抗LAM抗体
Take B2: the binding result with 结核分枝杆菌特异性重组蛋白38KD, in the assay with 结核分枝杆菌特异性重组蛋白MPT32, in the assay with 结核分枝杆菌特异性重组蛋白MPT64, with 结核分枝杆菌特异性重组蛋白Mtb81, in the assay with 结核分枝杆菌特异性重组蛋白CFP10 and with 结核分枝杆菌特异性重组蛋白EspC was “no binding (tested: protein coated at 5μg/ml)” throughout.
